System: Renilla luciferase RNA
Assay: Barcoded aptazyme variant library screen: un-cleaved Renilla luciferase RNA by barcode read counts, HEK293-T cells
Type: cell-based
Settings: un-cleaved Renilla luciferase RNA by barcode read counts; with 1 mM theophylline (ON) over without theophylline (OFF); HEK293-T cells; triplicate
Outline: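 Barcode sequencing of cDNA versus DNA, normalized per aptazyme, gave the un-cleaved Renilla luciferase RNA fraction and fold-change with versus without theophylline (triplicates). Library: T3H48 ribozyme with one of seven theophylline aptamer variants inserted at each position, placed in the Renilla 3′ UTR of a dual-luciferase vector.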

Row | Molecule | Fold change in RNA expression between the ON state and the OFF state
1 | RA430 (nucleic acid, expressed or natural sequence) DNA: GCGCGTCCTGGATTCGCGGAAACGCGTACATCCAGCTGAGAGAATACCAGCATCGTCTTGATGCCCTTGGAAGTCTCCGAGTCCCAAATAGGACGAAACGCGC | 0.6
2 | RA421 (nucleic acid, expressed or natural sequence) DNA: GCGCGTCCTGGATTCGCGGAAAGAGAATACCAGCATCGTCTTGATGCCCTTGGAAGTCTCCGCGTACATCCAGCTGACGAGTCCCAAATAGGACGAAACGCGC | 0.6
3 | RA420 (nucleic acid, expressed or natural sequence) DNA: GCGCGTCCTGGATTCGCGGAAACGGAGAATACCAGCATCGTCTTGATGCCCTTGGAAGTCTCCGTACATCCAGCTGACGAGTCCCAAATAGGACGAAACGCGC | 0.6
4 | RA409 (nucleic acid, expressed or natural sequence) DNA: GCGCGTCCTGGATTCGCCGAGAATACCAGCATCGTCTTGATGCCCTTGGAAGTCTCGGGAAACGCGTACATCCAGCTGACGAGTCCCAAATAGGACGAAACGCGC | 0.7
5 | RA411 (nucleic acid, expressed or natural sequence) DNA: GCGCGTCCTGGATTCGCGGAAACGCGTACATCCAGCTGACGAGTCCCAAATAGCGAGAATACCAGCATCGTCTTGATGCCCTTGGAAGTCTCGGACGAAACGCGC | 0.7
6 | RA418 (nucleic acid, expressed or natural sequence) DNA: GCGCGTCCTGGATTCGCGGAAACGCGTACATCGAGAATACCAGCATCGTCTTGATGCCCTTGGAAGTCTCGCCAGCTGACGAGTCCCAAATAGGACGAAACGCGC | 0.7
7 | RA416 (nucleic acid, expressed or natural sequence) DNA: GCGCGTCCTGGACGGAATACCAGCATCGTCTTGATGCCCTTGGAAGTCCGTTCGCGGAAACGCGTACATCCAGCTGACGAGTCCCAAATAGGACGAAACGCGC | 0.7
8 | RA407 (nucleic acid, expressed or natural sequence) DNA: GCGCGTCCTGGATTCGCGGAAACGCGTACATCCAGCTGACGAGTCCCAAATAGGACGGAATACCAGCATCGTCTTGATGCCCTTGGAAGTCCGAAACGCGC | 0.7
9 | RA413 (nucleic acid, expressed or natural sequence) DNA: GCGCGTCCTGGATTCGCGGAAACGCGTAGAATACCAGCATCGTCTTGATGCCCTTGGAAGTCTACATCCAGCTGACGAGTCCCAAATAGGACGAAACGCGC | 0.7
10 | RA424 (nucleic acid, expressed or natural sequence) DNA: GCGCGTCCTGGATTCGCGGAAACGCGTACATCCAGCTGCGAGAATACCAGCATCGTCTTGATGCCCTTGGAAGTCTCGACGAGTCCCAAATAGGACGAAACGCGC | 0.6
11 | RA429 (nucleic acid, expressed or natural sequence) DNA: GCGCGTCCTGGATTCGCGGGGAATACCAGCATCGTCTTGATGCCCTTGGAAGTCCAAACGCGTACATCCAGCTGACGAGTCCCAAATAGGACGAAACGCGC | 0.6
12 | RA427 (nucleic acid, expressed or natural sequence) DNA: GCGCGTCCTGCCGGAATACCAGCATCGTCTTGATGCCCTTGGAAGTCCGGGATTCGCGGAAACGCGTACATCCAGCTGACGAGTCCCAAATAGGACGAAACGCGC | 0.6
13 | RA426 (nucleic acid, expressed or natural sequence) DNA: GCGCGTCCTGGATTCGCGGAAACGCGTACATCCAGCTGACGAGTCCCAAATAGGACGCCGGAATACCAGCATCGTCTTGATGCCCTTGGAAGTCCGGAAACGCGC | 0.6
14 | RA428 (nucleic acid, expressed or natural sequence) DNA: GCGCGTCCTGGATTCGCGGAAACGCGTACATCCAGCTGACGAGTCCGAGAATACCAGCATCGTCTTGATGCCCTTGGAAGTCTCCAAATAGGACGAAACGCGC | 0.6
15 | RA419 (nucleic acid, expressed or natural sequence) DNA: GCGCGTCCTGGATTCGCGGAAACGCGTACATCCAGCTGACGAGTCCCAAATAGGACGAAAGAATACCAGCATCGTCTTGATGCCCTTGGAAGTCTACGCGC | 0.7
16 | RA408 (nucleic acid, expressed or natural sequence) DNA: GCGCGTCCTGGATTCGCGGAAACGCGGGAATACCAGCATCGTCTTGATGCCCTTGGAAGTCCTACATCCAGCTGACGAGTCCCAAATAGGACGAAACGCGC | 0.7
17 | RA422 (nucleic acid, expressed or natural sequence) DNA: GCGCGTCCTGGATTCGCGGAAACGCGTACATCCAGCTGACGAGTCCCAAATAGGACGACGGAATACCAGCATCGTCTTGATGCCCTTGGAAGTCCGAACGCGC | 0.6
18 | RA423 (nucleic acid, expressed or natural sequence) DNA: GCGCGTCCTGGATTCGCGGAAACGCGTACATCCAGCTGACGAGCCGGAATACCAGCATCGTCTTGATGCCCTTGGAAGTCCGGTCCCAAATAGGACGAAACGCGC | 0.6
19 | RA414 (nucleic acid, expressed or natural sequence) DNA: GCGCGTCCTGGATTCGCGGAAACGCGTACATCCAGCTGACGAGTCCCCCGGAATACCAGCATCGTCTTGATGCCCTTGGAAGTCCGGAAATAGGACGAAACGCGC | 0.7
20 | RA415 (nucleic acid, expressed or natural sequence) DNA: GCGCGTCCTGGATTCGCGGACCGGAATACCAGCATCGTCTTGATGCCCTTGGAAGTCCGGAACGCGTACATCCAGCTGACGAGTCCCAAATAGGACGAAACGCGC | 0.7
21 | RA412 (nucleic acid, expressed or natural sequence) DNA: GCGCGTCCTGGATTCGCGGAGTGATACCAGCATCGTCTTGATGCCCTTGGCAGCACTAAACGCGTACATCCAGCTGACGAGTCCCAAATAGGACGAAACGCGC | 0.7
22 | RA410 (nucleic acid, expressed or natural sequence) DNA: GCGCGTCCTGGATTCGCGGAAACGCGTACATCCAGCTGACGAGTCCCAGTGATACCAGCATCGTCTTGATGCCCTTGGCAGCACTAAATAGGACGAAACGCGC | 0.7
23 | RA417 (nucleic acid, expressed or natural sequence) DNA: GCGCGTCCTGGATTCGCGGAAACGCGTACATCCAGCTGACGAGTCCCAAATCGGAATACCAGCATCGTCTTGATGCCCTTGGAAGTCCGAGGACGAAACGCGC | 0.7
24 | RA431 (nucleic acid, expressed or natural sequence) DNA: GCGCGTCCTGGATTCGCGGAAACGCGTACATCCACGGAATACCAGCATCGTCTTGATGCCCTTGGAAGTCCGGCTGACGAGTCCCAAATAGGACGAAACGCGC | 0.6
25 | RA425 (nucleic acid, expressed or natural sequence) DNA: GCGCGTCCTGGATTCGCGGAAACGCGTACAGGAATACCAGCATCGTCTTGATGCCCTTGGAAGTCCTCCAGCTGACGAGTCCCAAATAGGACGAAACGCGC | 0.6

Same assay, conditions: un-cleaved Renilla luciferase RNA, HEK293-T cells cultured with 1 mM theophylline (ON) over without theophylline (OFF); barcode read counts, triplicate

Row | Molecule | Fold change in RNA expression between the ON state and the OFF state
26 | RA041 (nucleic acid, expressed or natural sequence) DNA: GCGCGTCCTGGATTCGCGGAAACGCGAGTGATACCAGCATCGTCTTGATGCCCTTGGCAGCACTTACATCCAGCTGACGAGTCCCAAATAGGACGAAACGCGC | 2.1 fold
27 | RA042 (nucleic acid, expressed or natural sequence) DNA: GCGCGTCCTGGATTCGCGGAAACGCGTACATCCAAGAATACCAGCATCGTCTTGATGCCCTTGGAAGTCTGCTGACGAGTCCCAAATAGGACGAAACGCGC | 2.1 fold
28 | RA040 (nucleic acid, expressed or natural sequence) DNA: GCGCGTCCTGGATTCGCGAGAATACCAGCATCGTCTTGATGCCCTTGGAAGTCTGAAACGCGTACATCCAGCTGACGAGTCCCAAATAGGACGAAACGCGC | 2.1 fold
